Drawing on PMC5574827, “Improvement of the pharmacological activity of menthol via enzymatic β-anomer-selective glycosylation” (AMB Express, 2017), this text covers Km and kcat for 1 protein.

Substrate in the series: CC(C)[C@@H]1CC[C@@H](C)C[C@H]1O
Put plainly: LC-MS/MS (MRM) of menthol glucoside, Lineweaver-Burk. Format: biochemical, Bacillus licheniformis. The conditions noted are these: UDP-glucose as sugar donor (2 mM in the general protocol), 1 mM MgCl2, 50 mM Tris-HCl pH 8.0, 30 °C, 10 min.

B1: BLC (Bacillus licheniformis DSM 13 = ATCC 14580) (protein)
chain: MGHKHIAIFNIPAHGHINPTLALTASLVKRGYRVTYPVTDEFVKAVEETGAEPLNYRSTLNIDPQQIRELMKNKKDMSQAPLMFIKEMEEVLPQLEALYENDKPDLILFDFMAMAGKLLAEKFGIEAVRLCSTYAQNEHFTFRSISEEFKIELTPEQEDALKNSNLPSFNFEDMFEPAKLNIVFMPRAFQPYGETFDERFSFVGPSLAKRKFQEKETPIISDSGRPVMLISLGTAFNAWPEFYHMCIEAFRDTKWQVIMAVGTTIDPESFDDIPENFSIHQRVPQLEILKKAELFITHGGMNSTMEGLNAGVPLVAVPQMPEQEITARRVEELGLGKHLQPEDTTAASLREAVSQTDGDPHVLKRIQDMQKHIKQAGGAEKAADEIEAFLAPAGVK
notes: His-tagged, pET28a (BamHI/XhoI), expressed in E. coli BL21(DE3), Ni-NTA purified; cloned as in Wu et al. 2012
Broadly, the Km is the concentration of substrate that gives half-maximal velocity. As a reminder, the kcat is the maximal rate divided by the concentration of active sites. As to B1, the Michaelis-Menten constant (Km) stood at 1740 ± 600 µM and the catalytic constant (kcat) was determined as 1.58 ± 0.0388 s⁻¹.
